Assay results as given in the RNAGym collection of RNA variant scans (doi:10.7554/elife.90254).

B1: LINE1-mini (parent)
chain: GGCAGAGCUCAACACAGCGUGGCAAAGUGGCUGUGGCUAGACUGCC

Variants of: B1
Assay: self-cleavage, relative activity (ratio to wild type); higher = more cleavage; in vitro, sequencing; the parent is a self-cleaving ribozyme

| Variant | self-cleavage |
| --- | --- |
| AGCAGAGCUCAACACAGCGUGGCAAAUUGGCUGUGGCUAGACUGCC [G1A G27U] | 1.95 |
| GGCAGAGCUCAGCACAGCGUGGCAAAGUGGCUAUGGCUAGACUGCC [A12G G33A] | 0.07 |
| GGCAGAGCUCAACACAGCGUGGCAAAGUGACUGUGGCUAGACUUCC [G30A G44U] | 0.18 |
| GGCAGAGCUCAACACAGCGUGGCAAAGUGGCUUUGGCUAUACUGCC [G33U G40U] | 0.14 |
| GGCAGAGCUCAACACAGCGUGGCAAAGUGGCUGUUGCUAAACUGCC [G35U G40A] | 0.09 |
| GGCAGAGCUCAACACAGCGUGGCAAAGUGGAUGUGGGUAGACUGCC [C31A C37G] | 0.07 |
| GGCAGAGCUCAACACAGCGUGGCAAAGUAGUUGUGGCUAGACUGCC [G29A C31U] | 0.95 |
| GGCAGAGCUCAAGACAGCGUGGCAAAUUGGCUGUGGCUAGACUGCC [C13G G27U] | 0.26 |
| GGCAGAGCUCAACACAGCGUGGCAAAGUGACUUUGGCUAGACUGCC [G30A G33U] | 0.08 |
| GGCAGAGGUCAACAUAGCGUGGCAAAGUGGCUGUGGCUAGACUGCC [C8G C15U] | 0.1 |
| GGCAGAGCUCAACACAGCGUGGCACACUGGCUGUGGCUAGACUGCC [A25C G27C] | 0.39 |
| GGCAGAGCUCAACACAGCGCGGCAAAGUGGCUCUGGCUAGACUGCC [U20C G33C] | 0.07 |
| GGCAGAGCUCAACAUAGCGUGGCAAAGUGGCUGUGGCUAAACUGCC [C15U G40A] | 0.14 |
| GACAGAGCUCAACACAGCGUGGCAAAGUGGCUGUGGCUACACUGCC [G2A G40C] | 0.12 |
| GGCAGAGGUCAACACAGCGUGGCAAAGUGGCUGUGGCUGGACUGCC [C8G A39G] | 0.06 |
| GGCAGAGCUUAACACAGCGUGGCAAAGUGGCUGUGGCUAGAAUGCC [C10U C42A] | 0.05 |
| GGCAGAGCUCAACACAGCGUGGCAAAGUUGCUGUGGCUAGACUGCG [G29U C46G] | 0.93 |
| GGCAGAGGUCAACACAGCGUGGCAAAGUGGCAGUGGCUAGACUGCC [C8G U32A] | 0.04 |
| GGCAGAGCUCAACCCAGCGUGGCAAAGUGGCUGUGGCUAGAAUGCC [A14C C42A] | 0.07 |

| Variant | self-cleavage |
| --- | --- |
| GGCAGAGCUCACCACAGCGUGGCAAAGUGUCUGUGGCUAGACUGCC [A12C G30U] | 0.01 |
| GGCAGAGCUCAACACAGCGUGGGAAAGCGGCUGUGGCUAGACUGCC [C23G U28C] | 0.66 |
| GGCAGAGCUCACCACAGUGUGGCAAAGUGGCUGUGGCUAGACUGCC [A12C C18U] | 0.04 |
| GGCAGAGCUCAACACAGCGUGGCAAAGUGCGUGUGGCUAGACUGCC [G30C C31G] | 0.44 |
| GGCAGAGCUCAAAACAGCGUGGCACAGUGGCUGUGGCUAGACUGCC [C13A A25C] | 0.06 |
| GGCAGAGCUCAACACGGCGUGGCAAAGUGGCUGUGCCUAGACUGCC [A16G G36C] | 0.05 |
| GGCAGAGCUCAACUCAGCGUGGCAAAGUGGCUGUGGCUAGACUGCA [A14U C46A] | 0.4 |
| GGCAGAGCUCAACACUACGUGGCAAAGUGGCUGUGGCUAGACUGCC [A16U G17A] | 0.06 |
| GGAAGAGCUCAACACAGCGUGGCAACGUGGCUGUGGCUAGACUGCC [C3A A26C] | 0.44 |
| GUCAGAGCUCAACACAGCGUGGCAAAGUGGCUGUUGCUAGACUGCC [G2U G35U] | 0.07 |
| GGCAGAGAUAAACACAGCGUGGCAAAGUGGCUGUGGCUAGACUGCC [C8A C10A] | 0.04 |
| GGCAGAGCUGAACACAGCGUGGCAAAGUAGCUGUGGCUAGACUGCC [C10G G29A] | 0.1 |
| GGCAGAGCUCAACACAGCGUGGCAAAGUGGCUGUGGCUACGCUGCC [G40C A41G] | 0.07 |
| GGCAGAACUCAACACAGCGUAGCAAAGUGGCUGUGGCUAGACUGCC [G7A G21A] | 0.34 |
| GGCAGAGCUCAACACAGCGUGGCAAAGUGGCUGUGGCCAGACUCCC [U38C G44C] | 0.32 |
| GGCAGAACUCAACACAGCGUGGCAAAGUGGCUGUGGCUAGAUUGCC [G7A C42U] | 0.16 |
| GGCAGAGCUCAACACAUCGUGGCAAAGUGGCUGUGGCUACACUGCC [G17U G40C] | 0.17 |
| GGCAGAGCUCAACACAGCGUGGCAAAGUGGCUGUGGCUAGACUUCG [G44U C46G] | 0.08 |
| GGCAGAGCUCAACAAAGCGUGGCAAAGUGGCUGUAGCUAGACUGCC [C15A G35A] | 0.1 |

| Variant | self-cleavage |
| --- | --- |
| GGCAGAGUUCAACACAGCGUGGCAAAGUGGCUGUGGCUAGACUGCU [C8U C46U] | 0.56 |
| GGCAGAGCUCAGCACAGCGUGGCUAAGUGGCUGUGGCUAGACUGCC [A12G A24U] | 0.03 |
| GGCAGAGCUCAACACAGCGUCGCAAAGUGGCUGUAGCUAGACUGCC [G21C G35A] | 0.16 |
| GGCAGAGCUCAACACAGCGUGGCAAAGUGCCUGUGGCUAGACUCCC [G30C G44C] | 0.27 |
| GACAGAGCUCAACACAGCGUGGCAGAGUGGCUGUGGCUAGACUGCC [G2A A25G] | 0.23 |
| GGCAGAGCUCAACCCAGCGAGGCAAAGUGGCUGUGGCUAGACUGCC [A14C U20A] | 0.08 |
| GGCAGAGCUCAACACAGCGUGGCAAAGUCGCUGUCGCUAGACUGCC [G29C G35C] | 0.15 |
| GACAGAUCUCAACACAGCGUGGCAAAGUGGCUGUGGCUAGACUGCC [G2A G7U] | 0.17 |
| GGCACAGCUCCACACAGCGUGGCAAAGUGGCUGUGGCUAGACUGCC [G5C A11C] | 0.04 |
| GGCAGAGCUCAACACAGCGUGGCAAAGUGGAUGUGGCUAGACUGAC [C31A C45A] | 0.05 |
| GGCAGAGCUCAACACAGCGAGGCAAAGUGGCUGUGGCUAGACUGCC [U20A] | 0.68 |
| GGCAGAGCUCAACCCAGCGUGGCAAAGUGGCUGUGGCUAGACUCCC [A14C G44C] | 0.13 |
| GGCAGAGCUCAACACAGCGUGGCAAAGUGGCUGUGGCUAGACCGAC [U43C C45A] | 0.08 |
| GGCAGAGCUCAACCCAGCGUGGCAAAGUAGCUGUGGCUAGACUGCC [A14C G29A] | 0.29 |
| GGCAGAGCUCAACACAGCGUGGCAAAGUGGCUGUGUCUAUACUGCC [G36U G40U] | 0.19 |
| GGGAGAGCUCAACACAGCGUGGCAAAGUGGCAGUGGCUAGACUGCC [C3G U32A] | 0.05 |
| GGCAGAGCUCAACACACCGUGGCAAAGUGGCUGUGGCAAGACUGCC [G17C U38A] | 0.14 |
| GGCAGAGCUCAACACAGCGUGGCUAAGUGGCUGUGGCUAGUCUGCC [A24U A41U] | 0.61 |
